Measured values as given in patent publication US20210388102A1 (IMMUNOGEN, published 2021).

T1: cynomolgus monkey ADAM9 (cynoADAM9) on cells (cynomolgus monkey, UniProt Q13443 206-819 (human entry))
T1 construct: also called Cho-K/cynoADAM9 clone 2; Cho-K/cynoADAM9 clone #16
T1 chain: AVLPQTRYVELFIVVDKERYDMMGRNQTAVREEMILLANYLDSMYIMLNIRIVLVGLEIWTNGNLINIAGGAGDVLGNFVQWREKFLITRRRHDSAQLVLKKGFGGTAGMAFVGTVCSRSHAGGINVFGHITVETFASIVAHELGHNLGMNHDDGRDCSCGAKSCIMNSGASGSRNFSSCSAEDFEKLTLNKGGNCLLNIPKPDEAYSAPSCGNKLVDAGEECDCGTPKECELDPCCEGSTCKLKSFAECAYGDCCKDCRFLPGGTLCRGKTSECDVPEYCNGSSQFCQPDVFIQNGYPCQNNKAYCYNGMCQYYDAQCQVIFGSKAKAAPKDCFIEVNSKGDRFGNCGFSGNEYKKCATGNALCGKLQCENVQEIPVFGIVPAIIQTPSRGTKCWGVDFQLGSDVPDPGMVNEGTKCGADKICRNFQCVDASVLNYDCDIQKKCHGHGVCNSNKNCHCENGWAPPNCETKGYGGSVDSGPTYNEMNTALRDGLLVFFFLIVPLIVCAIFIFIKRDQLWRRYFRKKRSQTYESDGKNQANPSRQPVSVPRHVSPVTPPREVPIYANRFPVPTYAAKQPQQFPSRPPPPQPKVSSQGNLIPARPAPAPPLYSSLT

T2: human ADAM9 (huADAM9) on cells (human, UniProt Q13443 206-819)
T2 sequence: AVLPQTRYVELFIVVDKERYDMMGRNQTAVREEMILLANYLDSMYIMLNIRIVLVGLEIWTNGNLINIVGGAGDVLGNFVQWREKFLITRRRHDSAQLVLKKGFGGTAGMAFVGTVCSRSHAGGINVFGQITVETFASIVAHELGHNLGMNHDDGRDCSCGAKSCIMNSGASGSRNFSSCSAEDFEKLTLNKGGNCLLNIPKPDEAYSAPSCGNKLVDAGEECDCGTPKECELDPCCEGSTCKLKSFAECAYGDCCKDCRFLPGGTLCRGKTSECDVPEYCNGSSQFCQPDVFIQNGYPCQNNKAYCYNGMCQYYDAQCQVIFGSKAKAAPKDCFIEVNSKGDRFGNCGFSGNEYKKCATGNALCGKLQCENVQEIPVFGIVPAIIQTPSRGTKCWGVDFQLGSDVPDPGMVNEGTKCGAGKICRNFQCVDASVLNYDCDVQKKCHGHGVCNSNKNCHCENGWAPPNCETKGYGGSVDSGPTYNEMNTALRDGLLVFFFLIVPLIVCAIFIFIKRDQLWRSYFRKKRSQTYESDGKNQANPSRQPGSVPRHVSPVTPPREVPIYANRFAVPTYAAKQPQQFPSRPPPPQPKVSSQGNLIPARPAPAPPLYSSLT

B1: hMAB-A(2.2)-DGN549 (antibody, human IgG1, kappa, V domains shown)
VH: EVQLVESGGGLVKPGGSLRLSCAASGFTFSSYWMHWVRQAPGKGLEWVGEIIPIFGHTNYNEKFKSRFTISLDNSKNTLYLQMGSLRAEDTAVYYCARGGYYYYGSRDYFDYWGQGTTVTVSS
VL: DIVMTQSPDSLAVSLGERATISCKASQSVDYSGDSYMNWYQQKPGQPPKLLIYAASDLESGIPARFSGSGSGTDFTLTISSLEPEDFATYYCQQSHEDPFTFGQGTKLEIKR
modifications: lysine-linked DGN549, sites not given; DGN549-L (compound D2) linked to lysine residues of the antibody, sites not given; average 2.7 mol DGN549/mol antibody
B2: hMAB-A(2.2)-sSPDB-DM4 (antibody, human IgG1, kappa, V domains shown)
VH: EVQLVESGGGLVKPGGSLRLSCAASGFTFSSYWMHWVRQAPGKGLEWVGEIIPIFGHTNYNEKFKSRFTISLDNSKNTLYLQMGSLRAEDTAVYYCARGGYYYYGSRDYFDYWGQGTTVTVSS
VL: DIVMTQSPDSLAVSLGERATISCKASQSVDYSGDSYMNWYQQKPGQPPKLLIYAASDLESGIPARFSGSGSGTDFTLTISSLEPEDFATYYCQQSHEDPFTFGQGTKLEIKR
modifications: lysine-linked DM4, sites not given; DM4 linked through sulfo-SPDB to lysine residues of the antibody, sites not given; average 3.2 mol DM4/mol antibody
notes: also called huMAB-A(2.2)-sSPDB-DM4
B3: hMAB-A(2C.2)-DGN549 (antibody, human IgG1, kappa, V domains shown)
VH: EVQLVESGGGLVKPGGSLRLSCAASGFTFSSYWMHWVRQAPGKGLEWVGEIIPIFGHTNYNEKFKSRFTISLDNSKNTLYLQMGSLRAEDTAVYYCARGGYYYYPRFGWLDYWGQGTTVTVSS
VL: DIVMTQSPDSLAVSLGERATISCKASQSVDYSGDSYMNWYQQKPGQPPKLLIYAASDLESGIPARFSGSGSGTDFTLTISSLEPEDFATYYCQQSHEDPFTFGQGTKLEIKR
modifications: lysine-linked DGN549, sites not given; DGN549-L (compound D2) linked to lysine residues of the antibody, sites not given; average 2.8 mol DGN549/mol antibody
B4: hMAB-A(2C.2)-sSPDB-DM4 (antibody, human IgG1, kappa, V domains shown)
VH: EVQLVESGGGLVKPGGSLRLSCAASGFTFSSYWMHWVRQAPGKGLEWVGEIIPIFGHTNYNEKFKSRFTISLDNSKNTLYLQMGSLRAEDTAVYYCARGGYYYYPRFGWLDYWGQGTTVTVSS
VL: DIVMTQSPDSLAVSLGERATISCKASQSVDYSGDSYMNWYQQKPGQPPKLLIYAASDLESGIPARFSGSGSGTDFTLTISSLEPEDFATYYCQQSHEDPFTFGQGTKLEIKR
modifications: lysine-linked DM4, sites not given; DM4 linked through sulfo-SPDB to lysine residues of the antibody, sites not given; average 3.2 mol DM4/mol antibody

How the values were obtained:
[1] = biological target: T1, cynomolgus monkey ADAM9 (cynoADAM9) on …; test: FACS, 300-19 cells expressing cynomolgus ADAM9
Experimental: (§1) To evaluate the consequence of conjugation on antigen binding, the relative binding affinity of each anti-ADAM9 immunoconjugate and its respective unconjugated antibody to ADAM9 was determined by FACS analysis on 300-19 cells ectopically-expressing either human ADAM9 or cynomolgus ADAM9. Briefly, the ADAM9-expressing 300-19 cells were incubated with dilution series of anti-ADAM9 antibodies or immunoconjugates for 30 min @ 4° C. in FACS buffer (PBS, 0.1% BSA, 0.01% NaN₃), Samples were then washed and incubated with fluorescently-labeled secondary antibody for 30 minutes at 4° C. The normalized mean of fluorescence intensity at each concentration was plotted and the EC50 of binding was calculated using a nonlinear regression analysis (GraphPad Prims 4.0).

[2] = biological target: T2, human ADAM9 (huADAM9) on cells; test: cell-based or functional assay
[3] = biological target: T1, cynomolgus monkey ADAM9 (cynoADAM9) on …; test: FACS, EC50 on 300-19 cynoADAM9 cells over EC50 on 300-19 huADAM9 cells
Experimental: as §1

[4] = biological target: T2, human ADAM9 (huADAM9) on cells; test: FACS, 300-19 cells expressing human ADAM9
Experimental: as §1

Binder | EC50 [1] [nM] | Fold-specificity (IC50 control ADC/IC50 anti-ADAM9 ADC), A498 [2] [fold] | Fold-specificity (IC50 control ADC/IC50 anti-ADAM9 ADC), DLD-1 [2] [fold] | Fold-specificity (IC50 control ADC/IC50 anti-ADAM9 ADC), DU145 [2] [fold] | Fold-specificity (IC50 control ADC/IC50 anti-ADAM9 ADC), HPAF2 [2] [fold] | Fold-specificity (IC50 control ADC/IC50 anti-ADAM9 ADC), HS578T [2] [fold] | Fold-specificity (IC50 control ADC/IC50 anti-ADAM9 ADC), IGROV1 [2] [fold] | Fold-specificity (IC50 control ADC/IC50 anti-ADAM9 ADC), KATO III [2] [fold] | Fold-specificity (IC50 control ADC/IC50 anti-ADAM9 ADC), NCI-H1703 [2] [fold] | In Vitro Cytotoxicity (IC50 nM), A498 [2] [nM] | In Vitro Cytotoxicity (IC50 nM), DLD-1 [2] [nM] | In Vitro Cytotoxicity (IC50 nM), DU145 [2] [nM] | In Vitro Cytotoxicity (IC50 nM), HPAF2 [2] [nM] | In Vitro Cytotoxicity (IC50 nM), HS578T [2] [nM] | In Vitro Cytotoxicity (IC50 nM), IGROV1 [2] [nM] | In Vitro Cytotoxicity (IC50 nM), KATO III [2] [nM] | In Vitro Cytotoxicity (IC50 nM), NCI-H1703 [2] [nM] | cyno/human (ratio of EC50) [3] | EC50 [4] [nM]
B1 | 22.3 | > 1000 | > 1000 | > 1000 | > 1000 | > 1000 | > 1000 | > 1000 | > 1000 | 0.001 | 0.01 | 0.002 | 0.043 | 0.009 | 0.001 | 0.031 | 0.002 | 14 | 1.55
B2 | 13.3 | 27 | 9 | 25 | 9 | 16 | 3 | 5 | 152 | 0.119 | 2.73 | 0.57 | 0.622 | 0.119 | 4.08 | 1.15 | 0.024 | 12 | 1.11
B3 | 5.6 | – | – | – | – | – | – | – | – | – | – | – | – | – | – | – | – | 3 | 1.99
B4 | 4.4 | – | – | – | – | – | – | – | – | – | – | – | – | – | – | – | – | 3 | 1.5
